This passage reports Kd results from publication PMC6978347 (2020).

The test has as its target T1, MEKK3^43–127 (MEKK3–PB1) (UniProt Q99759 43-127).
T1 chain: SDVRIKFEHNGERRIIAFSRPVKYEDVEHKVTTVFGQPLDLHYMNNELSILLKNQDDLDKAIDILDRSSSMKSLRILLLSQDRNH
Put plainly: ITC. For orientation: Isothermal titration calorimetry measures the heat released or taken up as one component is titrated into another.

B1: NBR1^1–85 (human NBR1–PB1) (domain or fragment)
chain: MEPQVTLNVTFKNEIQSFLVSDPENTTWADIEAMVKVSFDLNTIQIKYLDEENEEVSINSQGEYEEALKMAVKQGNQLQMQVHEG
With B1, binding was characterised by a dissociation constant (Kd) of 0.0133 µM.

Broadly, the Kd is the equilibrium constant for the complex coming apart.
